Laboratory results as given in FireProtDB (doi:10.1002/pro.5560040510).

Details: Bos taurus, glycine 40 mM, reversible: no, whole UniProt chain shown; for Tm / unfolding enthalpy (van 't Hoff): Thermal, Absorbance

B1: Adrenodoxin, mitochondrial wild type, P00257 (protein)
chain: MAARLLRVASAALGDTAGRWRLLARPRAGAGGLRGSRGPGLGGGAVATRTLSVSGRAQSSSEDKITVHFINRDGETLTTKGKIGDSLLDVVVQNNLDIDGFGACEGTLACSTCHLIFEQHIFEKLEAITDEENDMLDLAYGLTDRSRLGCQICLTKAMDNMTVRVPDAVSDARESIDMGMNSSKIE
Tm (pH 6.5): 47.5 °C
unfolding enthalpy (van 't Hoff) (pH 6.5): 90 kcal/mol
Tm (pH 7.4): 53.7 °C
unfolding enthalpy (van 't Hoff) (pH 7.4): 91.6 kcal/mol
unfolding free energy (pH 8.5, 25 °C, Urea, DSC): 5.02 kcal/mol
Tm (pH 8.5): 53.5 °C
unfolding enthalpy (van 't Hoff) (pH 8.5): 82 kcal/mol
Tm (pH 9.5): 54 °C
unfolding enthalpy (van 't Hoff) (pH 9.5): 79.2 kcal/mol
Tm (pH 10.5): 53.2 °C
unfolding enthalpy (van 't Hoff) (pH 10.5): 64.6 kcal/mol
